# Reference: patent publication US20180155451A1 (published 2018)
# T1: FcgRIIa H extracellular domain with C-terminal His tag (human, UniProt P12318 34-217)
# T1 construct: extracellular domain; also called FcγRIIa H; FcγRIIa type H; not shown: His tag attached to the C terminus
# T1 sequence (looked up): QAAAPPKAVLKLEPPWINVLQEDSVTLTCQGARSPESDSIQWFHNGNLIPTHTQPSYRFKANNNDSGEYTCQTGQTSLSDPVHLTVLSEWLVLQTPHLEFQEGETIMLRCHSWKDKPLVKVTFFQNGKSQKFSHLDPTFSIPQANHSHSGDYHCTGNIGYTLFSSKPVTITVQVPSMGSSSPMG
# T2: FcgRIIa R extracellular domain with C-terminal His tag (human, UniProt P12318 34-217)
# T2 construct: extracellular domain; also called FcγRIIa R; FcγRIIa type R; not shown: His tag attached to the C terminus
# T2 sequence (looked up): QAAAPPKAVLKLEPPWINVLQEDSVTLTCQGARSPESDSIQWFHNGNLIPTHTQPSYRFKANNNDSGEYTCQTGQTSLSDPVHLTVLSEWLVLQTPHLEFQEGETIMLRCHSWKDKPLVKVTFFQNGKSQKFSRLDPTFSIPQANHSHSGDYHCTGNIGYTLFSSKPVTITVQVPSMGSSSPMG
# Columns and labels:
# [1] = biological target: T1, FcgRIIa H extracellular domain with …; test: ratio of SPR (Biacore) KDs, FcγRIIb as reference; antibody captured on chip, FcγR as analyte
# Procedure: (§1) These antibodies were assessed for the binding activity to each FcγR according to the method described in Reference Example 2.
# (§2) Analysis of interaction between objective antibody and the FcγR was carried out using Biacore T100 (GE Healthcare). HBS-EP+ (GE Healthcare) was used as the running buffer, and the measurement temperature was set to 25° C. Chips produced by immobilizing the antigen peptide by the amine coupling method to a Series S Sencor Chip CM5 (GE Healthcare), or alternatively, chips produced by allowing preliminarily biotinylated antigen peptides to interact with and immobilize onto a Series S Sensor Chip SA (certified) (GE Healthcare) were used. Antibodies of interest were captured onto an antigen peptide-immobilized chip, and allowed to interact to each FcγR diluted with running buffer. To regenerate and repeatedly use the chip, the antibodies captured on the chip were washed off by reacting 10 mM glycine-HCl, pH 1.5.
# (§3) The FcγR-binding activity of each antibody was assessed primarily using as an indicator the FcγR-binding activity and dissociation constant for FcγR.
# [2] = biological target: T2, FcgRIIa R extracellular domain with …; test: as above
# Procedure: as §1, §2, §3
A/I ratio (KD for FcγRIIb / KD for FcγRIIa H) [1],A/I ratio (KD for FcγRIIb / KD for FcγRIIa R) [2],Binder
0.93,1.8,"GpH7-Kn032/GpH7-Hl032/GpL16-k0 (antibody, human IgG1, kappa, S239D/A330L/I332E in both H chains (called homodimerized); also called Kn032/Hl032) heavy 1: QVQLVQSGAEVKKPGASVTVSCKASGYTFTDYEMHWIRQPPGEGLEWIGAIDPKTGDTAYSESFQDRVTLTADKSTSTAYMELSSLTSEDTAVYYCTRFYSYTYWGQGTLVTVSSASTKGPSVFPLAPSSKSTSGGTAALGCLVKDYFPEPVTVSWNSGALTSGVHTFPAVLQSSGLYSLSSVVTVPSSSLGTQTYICNVNHKPSNTKVDKKVEPKSCDKTHTCPPCPAPELLGGPDVFLFPPKPKDTLMISRTPEVTCVVVDVSHEDPEVKFNWYVDGVEVHNAKTKPREEQYNSTYRVVSVLTVLHQDWLNGKEYKCKVSNKALPLPEEKTISKAKGQPREPQVCTLPPSRDELTKNQVSLWCLVKGFYPSDIAVEWESNGQPENNYKTTPPVLDSDGSFFLYSKLTVDKSRWQQGNVFSCSVMHEALHNHYTQKSLSLSP heavy 2: QVQLVQSGAEVKKPGASVTVSCKASGYTFTDYEMHWIRQPPGEGLEWIGAIDPKTGDTAYSESFQDRVTLTADKSTSTAYMELSSLTSEDTAVYYCTRFYSYTYWGQGTLVTVSSASTKGPSVFPLAPSSKSTSGGTAALGCLVKDYFPEPVTVSWNSGALTSGVHTFPAVLQSSGLYSLSSVVTVPSSSLGTQTYICNVNHKPSNTKVDKKVEPKSCDKTHTCPPCPAPELLGGPDVFLFPPKPKDTLMISRTPEVTCVVVDVSHEDPEVKFNWYVDGVEVHNAKTKPREEQYNSTYRVVSVLTVLHQDWLNGKEYKCKVSNKALPLPEEKTISKAKGQPREPQVYTLPPSRCELTKNQVSLSCAVKGFYPSDIAVEWESNGQPENNYKTTPPVLDSDGSFFLVSKLTVDKSRWQQGNVFSCSVMHEALHNHYTQKSLSLSP light: DIVMTQSPLSLPVTPGEPASISCQASESLVHSNRNTYLHWYLQKPGQSPQLLIYKVSNRFSGVPDRFSGSGSGTDFTLKISRVEAEDVGVYYCSQNTHVPPTFGQGTKVEIERTVAAPSVFIFPPSDEQLKSGTASVVCLLNNFYPREAKVQWKVDNALQSGNSQESVTEQDSKDSTYSLSSTLTLSKADYEKHKVYACEVTHQGLSSPVTKSFNRGEC"
8.6,13,"GpH7-Kn037/GpH7-Hl036/GpL16-k0 (antibody, human IgG1, kappa, G236A/S239D/I332E in both H chains (called homodimerized); also called Kn037/Hl036) heavy 1: QVQLVQSGAEVKKPGASVTVSCKASGYTFTDYEMHWIRQPPGEGLEWIGAIDPKTGDTAYSESFQDRVTLTADKSTSTAYMELSSLTSEDTAVYYCTRFYSYTYWGQGTLVTVSSASTKGPSVFPLAPSSKSTSGGTAALGCLVKDYFPEPVTVSWNSGALTSGVHTFPAVLQSSGLYSLSSVVTVPSSSLGTQTYICNVNHKPSNTKVDKKVEPKSCDKTHTCPPCPAPELLAGPDVFLFPPKPKDTLMISRTPEVTCVVVDVSHEDPEVKFNWYVDGVEVHNAKTKPREEQYNSTYRVVSVLTVLHQDWLNGKEYKCKVSNKALPAPEEKTISKAKGQPREPQVCTLPPSRDELTKNQVSLWCLVKGFYPSDIAVEWESNGQPENNYKTTPPVLDSDGSFFLYSKLTVDKSRWQQGNVFSCSVMHEALHNHYTQKSLSLSP heavy 2: QVQLVQSGAEVKKPGASVTVSCKASGYTFTDYEMHWIRQPPGEGLEWIGAIDPKTGDTAYSESFQDRVTLTADKSTSTAYMELSSLTSEDTAVYYCTRFYSYTYWGQGTLVTVSSASTKGPSVFPLAPSSKSTSGGTAALGCLVKDYFPEPVTVSWNSGALTSGVHTFPAVLQSSGLYSLSSVVTVPSSSLGTQTYICNVNHKPSNTKVDKKVEPKSCDKTHTCPPCPAPELLAGPDVFLFPPKPKDTLMISRTPEVTCVVVDVSHEDPEVKFNWYVDGVEVHNAKTKPREEQYNSTYRVVSVLTVLHQDWLNGKEYKCKVSNKALPAPEEKTISKAKGQPREPQVYTLPPSRCELTKNQVSLSCAVKGFYPSDIAVEWESNGQPENNYKTTPPVLDSDGSFFLVSKLTVDKSRWQQGNVFSCSVMHEALHNHYTQKSLSLSP light: DIVMTQSPLSLPVTPGEPASISCQASESLVHSNRNTYLHWYLQKPGQSPQLLIYKVSNRFSGVPDRFSGSGSGTDFTLKISRVEAEDVGVYYCSQNTHVPPTFGQGTKVEIERTVAAPSVFIFPPSDEQLKSGTASVVCLLNNFYPREAKVQWKVDNALQSGNSQESVTEQDSKDSTYSLSSTLTLSKADYEKHKVYACEVTHQGLSSPVTKSFNRGEC"
